Source: patent publication US20100028366A1, “SYNERGISTIC EFFECT BETWEEN A […] AND ANOTHER OXIDATIVE INDUCING SYSTEM FOR TREATING TUMORS” (priority 2005, published 2010)

How the values were obtained:
W&Wlis cells [1] = experiment: DNA content analysis by flow cytometry, labeling with propidium iodide; type: cell-based, canine; design: unit not given here; settings: 0 μg lin, 5 mEU/ml GO
W&Wlis cells [2] = experiment: Analysis of the type of death by flow cytometry (annexin V-FITC/propidium iodide); type: cell-based, canine
Experimental: The annexin V-FITC and propidium iodide assay was performed in parallel by flow cytometry. The pattern of death of the system was analyzed when adding 5 mEU/ml of glucose oxidase and the combined therapy (5 mEU/ml of GO and 500 μg/ml of linamarin) at 48 hours, followed by the control of untreated cells and of the cells incubated with 500 μg/ml of linamarin at 96 hours. Furthermore, another group of cells was subjected to the same conditions except 10 mM of N-acetyl cysteine (NAC) were added. The cells treated with the combined therapy were subsequently studied at 48 hours in the absence and presence of 100 μM of Z-VAD-fmk, followed by the control of treatment of the cells with UV in the same conditions. Finally, the cells treated with the combined therapy were shown at 48 hours in the absence and presence of 300 μM of 1,5-isoquinolinediol (DIQ), observing that the pattern of death is not modified when PARP-1 is inhibited (FIG. 4).
10^5 W&Wlis cells were seeded in test tubes with a screw-on cap and flat side (Nunc). After 24 hours, different amounts of linamarin (50, 200 or 500 μg/ml) and glucose oxidase (5 mEU/ml) were added in the specified cases. In the appropriate assays, the medium was supplemented with N-acetyl cysteine (10 mM), 1,5-isoquinolinediol (300 μM) or Z-VAD-fmk (100 μM). […] They were centrifuged for 5 minutes at 1200 rpm and the cell precipitate was washed first with PBS and then with binding buffer (0.1 M Hepes/NaOH pH 7.4, 1.4 M NaCl and 25 mM CaCl2). The cells were again precipitated and resuspended in 100 μl of binding buffer supplemented with 5 μl of annexin V-FITC and 2.5 μg/ml of propidium iodide. The samples were incubated for 15 minutes in the dark. Data acquisition and analysis was carried out by means of a FACSCalibur flow cytometer (DB Biosciences) with the Cell Quest program.

W&Wlis cells [3] = experiment: Determination of the extracellular peroxide concentration; type: cell-based, canine; settings: 48 hours; 0.5 mg/ml of linamarin and/or 5 mEU/ml of glucose oxidase; control approximately 20 μM
Experimental: The H2O2 levels (FIG. 3B) produced extracellularly in the combined therapy were further studied in the invention. To do so, the amount of H2O2 present in the culture medium of W&Wlis cells at 48 hours in a treatment with 0.5 mg/ml of linamarin, in the presence of 5 mEU/ml of glucose oxidase or in the combination of both treatments, was analyzed although positive results were also obtained using other concentrations.
The samples to be analyzed were diluted in 1 ml of 0.1 M phosphate buffer pH 7.4. Then 3.7 EU/ml of peroxidase (Sigma-Aldrich, St. Louis, USA) and 0.1 mg/ml of ortho-dianisidine (Sigma-Aldrich, St. Louis, USA) were added. The samples were incubated at room temperature for 30 minutes and absorbances at 436 nm were determined. The H2O2 concentration was obtained by interpolation of the data obtained in a standard line performed with increasing concentrations of H2O2.

W&Wlis cells [4] = experiment: Measurement of intracellular ATP; type: cell-based, canine; settings: linamarin (500 μg/ml) and/or glucose oxidase (5 mEU/ml), over time, versus untreated cells
Experimental: The levels of intracellular energy in the form of ATP decrease when a blockage of the mitochondrial electron transport chain occurs since it is the essential source of obtaining energy of the cells. […] This effect is due to the fact that the maximum H2O2 production by glucose oxidase occurs at short times because the cells have the ability of detoxifying the peroxide and due to the fact that glucose oxidase is inactivated over time by the serum proteins.
10^5 W&Wlis cells were seeded in test tubes with a screw-on cap and flat side (Nunc). After 24 hours, the medium was changed, adding linamarin (500 μg/ml) and glucose oxidase (5 mEU/ml) where appropriate. After 4, 8, 12, 24, 48 or 72 hours, the cells were centrifuged and processed following the instructions of the ATP Bioluminescence Assay Kit CLS II, of Roche Applied Science. The luminescence was analyzed with a Monolight 2010 luminometer (Analytical Luminescence Laboratory, San Diego) and expressed in relative light units (RLU).

W&Wlis cells [5] = experiment: Structural modifications of the mitochondrion (pDsRed2-mito, confocal microscopy); type: cell-based, canine; settings: linamarin 500 μg/ml from 48 hours; glucose oxidase 5 mEU/ml; combination after 24 hours
Experimental: For the purpose of studying the mitochondrial dynamics occurring as a result of the oxidative stress caused by the activity of the claimed system, W&Wlis cells were stably transfected with the plasmid pdsRed2-mito (Clontech) containing the gene of the one red fluorescent protein carried by a transport signal peptide to the mitochondrion. This allowed viewing the mitochondria of cells treated with linamarin and glucose oxidase by fluorescence microscopy. […] This effect starts to be observed 48 hours after treatment with linamarin (FIG. 1B) and becomes more pronounced after 72 hours, a slight swelling of the fragments (FIG. 1C) being observed.
To study the structural modifications of the mitochondrion during therapy, the W&W and W&Wlis cells were transfected with the plasmid pDsRed2-mito (Clontech, BD Bioscience) containing the gene of a red fluorescent protein which is expressed exclusively in mitochondria. The transfection was performed similarly to the previous section and clones were selected by resistance to neomycin (0.75 and 1.5 mg/ml respectively). The cells from stable expression clones of the protein were seeded in multiwell plates on cover slips (2.5×10^4) and were treated with linamarin (50, 200 or 500 μg/ml) and glucose oxidase (5 mEU/ml). After the suitable incubation time for each experiment (24, 48 or 72 hours) elapsed, the cells were fixed with 4% paraformaldehyde. […]

W&Wlis cells [6] = experiment: AIF location study by immunofluorescence; type: cell-based, canine; settings: 5 mEU/ml glucose oxidase, with or without 500 μg/ml linamarin
Experimental: Nevertheless, the activation of AIF could be caused by a mechanism that is PARP-1-independent (Cregan, 2004). AIF is a protein residing in the mitochondrion and when activated, it translocates to the nucleus in which it activates apoptosis. The possible translocation of AIF was analyzed by immunofluorescence with antibodies specific against AIF of W&Wlis cells treated with the therapy.
The cells were seeded on cover slips in 24-well plates and were treated according to the requirements of each experiment. After the appropriate incubation time for each assay, the cells were fixed with 4% paraformaldehyde for 30 minutes at room temperature or methanol at −20° C. for 10 minutes. The samples were subsequently permeabilized 10 minutes with PBS supplemented with triton X-100 or 0.1% sodium dodecyl sulfate (SDS) and were blocked by incubating for 30 minutes with PBS with 0.1% triton X-100 and with 1% bovine serum albumin, or PBS with 0.01% SDS and a 10% fetal calf serum. They were subsequently incubated for 45 minutes with the primary antibody at room temperature or overnight at 4° C. The antibodies used were anti-linamarase (1/200, supplied by Monica Hughes) and anti-AIF (1/50, Cell Signaling Technology). The secondary antibody used was anti-rabbit IgG coupled to fluorescein (1/50, Amersham Pharmacia Biotech). […]

Swiss mice = experiment: Toxicity of glucose oxidase in Swiss mice; type: in vivo; settings: intraperitoneally and intravenously
Experimental: The toxicity of glucose oxidase was evaluated in Swiss mice weighing about 20 grams, intraperitoneally and intravenously inoculated with different amounts of the purified enzyme. […] This allowed establishing an optimal dose range for GO for the combined therapy in this type of animal.

[7] = 0 μg lin, 5 mEU/ml GO, 48 hours, NAC (10 mM)
[8] = Table 4, 0 μg lin, 5 mEU/ml GO, 48 hours, Z-VAD-fmk (100 μM)
[9] = Table 4, 0 μg lin, 5 mEU/ml GO, 48 hours, control (no Z-VAD-fmk)
[10] = Table 5, GO, 32 hours, DIQ (300 μM)
[11] = Table 5, GO, 32 hours, control (no DIQ)
[12] = Table 5, GO, 48 hours, DIQ (300 μM)
[13] = Table 5, GO, 48 hours, control (no DIQ)

B1: GO: glucose oxidase enzyme catalyzing the conversion of glucose into gluconic acid, generating hydrogen peroxide (protein, UniProt P13006 17-605, looked up)
Glucose oxidase: LPHYIRSNGIEASLLTDPKDVSGRTVDYIIAGGGLTGLTTAARLTENPNISVLVIESGSYESDRGPIIEDLNAYGDIFGSSVDHAYETVELATNNQTALIRSGNGLGGSTLVNGGTWTRPHKAQVDSWETVFGNEGWNWDNVAAYSLQAERARAPNAKQIAAGHYFNASCHGVNGTVHAGPRDTGDDYSPIVKALMSAVEDRGVPTKKDFGCGDPHGVSMFPNTLHEDQVRSDAAREWLLPNYQRPNLQVLTGQYVGKVLLSQNGTTPRAVGVEFGTHKGNTHNVYAKHEVLLAAGSAVSPTILEYSGIGMKSILEPLGIDTVVDLPVGLNLQDQTTATVRSRITSAGAGQGQAAWFATFNETFGDYSEKAHELLNTKLEQWAEEAVARGGFHNTTALLIQYENYRDWIVNHNVAYSELFLDTAGVASFDVWDLLPFTRGYVHILDKDPYLHHFAYDPQYFLNELDLLGQAAATQLARNISNSGAMQTYFAGETIPGDNLAYDADLSAWTEYIPYHFRPNYHGVGTCSMMPKEMGGVVDNAARVYGVQGLRVIDGSIPPTQMSSHVMTVFYAMALKISDAILEDYASMQ
DNA content by flow cytometry, labeling with propidium iodide (W&Wlis cells [1]; 24 hours): 1.94 | DNA content by flow cytometry, labeling with propidium iodide (W&Wlis cells [1]; 48 hours): 1.03 | Apoptosis (W&Wlis cells [2]; 0 μg lin, 5 mEU/ml GO, 24 h): 5.98 | Necrosis (W&Wlis cells [2]; 0 μg lin, 5 mEU/ml GO, 24 h): 12.27 | Apoptosis (W&Wlis cells [2]; 0 μg lin, 5 mEU/ml GO, 48 h): 8.34 | Necrosis (W&Wlis cells [2]; 0 μg lin, 5 mEU/ml GO, 48 h): 4.50 | Apoptosis (W&Wlis cells [2]; [7]): 5.98 | Necrosis (W&Wlis cells [2]; [7]): 5.42 | Apoptosis (W&Wlis cells [2]; [8]): 13.94 | Necrosis (W&Wlis cells [2]; [8]): 18.92 | Apoptosis (W&Wlis cells [2]; [9]): 3.27 | Necrosis (W&Wlis cells [2]; [9]): 29.59 | Apoptosis (W&Wlis cells [2]; [10]): 9.32 | Necrosis (W&Wlis cells [2]; [10]): 16.69 | Apoptosis (W&Wlis cells [2]; [11]): 6.50 | Necrosis (W&Wlis cells [2]; [11]): 27.11 | Apoptosis (W&Wlis cells [2]; [12]): 17.52 | Necrosis (W&Wlis cells [2]; [12]): 20.89 | Apoptosis (W&Wlis cells [2]; [13]): 12.92 | Necrosis (W&Wlis cells [2]; [13]): 31.87 | extracellular H2O2 concentration in the culture medium (W&Wlis cells [3]): did not cause significant variations | intracellular ATP levels (W&Wlis cells [4]): moderate and transitory reduction of ATP after 6 hours | mitochondrial pattern (W&Wlis cells [5]): did not cause any structural change in most of the mitochondria | AIF location (W&Wlis cells [6]): typically mitochondrial AIF pattern | toxicity (Swiss mice; daily doses between 0.25 and 0.1 EU/g): no harmful effect | toxicity (Swiss mice; doses of 1 and 0.5 EU/g, first 24 hours post-administration): lethal effect
